Literature values as cited in article PMC9858354.

Target: CCRL2 (Homo sapiens) (UniProt O00421)
Assay: radioligand

Sequence of chemerin (Q99969 21-157): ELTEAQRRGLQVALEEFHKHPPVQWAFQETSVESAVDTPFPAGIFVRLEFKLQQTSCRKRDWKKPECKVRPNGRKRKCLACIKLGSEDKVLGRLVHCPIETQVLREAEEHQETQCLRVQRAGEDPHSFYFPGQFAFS
Sequence of CCRL2 (Homo sapiens) (O00421 whole entry): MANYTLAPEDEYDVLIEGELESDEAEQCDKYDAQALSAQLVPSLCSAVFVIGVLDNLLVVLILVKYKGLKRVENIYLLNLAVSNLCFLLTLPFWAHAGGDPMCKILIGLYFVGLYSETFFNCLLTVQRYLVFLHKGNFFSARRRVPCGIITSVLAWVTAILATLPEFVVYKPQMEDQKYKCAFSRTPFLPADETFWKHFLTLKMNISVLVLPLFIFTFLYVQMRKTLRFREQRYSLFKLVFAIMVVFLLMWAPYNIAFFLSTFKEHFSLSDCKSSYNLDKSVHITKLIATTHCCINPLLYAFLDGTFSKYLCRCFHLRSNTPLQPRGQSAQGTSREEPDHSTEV

**Q.** With chemerin (from UniProt Q99969) as the substance, how does the Kd read?
**A.** Its Kd is 2.35 nM.
